These results are taken from patent publication US20250042994A1 (HAINAN SIMCERE ZAIMING PHARMACEUTICAL, published 2025).

For experiment [1], the target named is T1, monkey CD19 on HEK293T-monkey CD19 cells (monkey).
T1 construct: whole, on cells
The experiment is described as follows: FACS on HEK293T-monkey CD19 cells. The procedure, abridged:
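Cells blocked in PBS + 2% (w/w) BSA at 2×10⁶ cells/ml, then incubated with test antibody on ice for 2 h. After washes, binding read by flow cytometry as mean fluorescence intensity (MFI). EC50 from fitted MFI curves. Parental HEK293T cells run by the same method.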

The target of experiment [2] is T2, human CD19 on Raji cells (human, UniProt P15391 20-556).
T2 construct: whole, on cells
T2 sequence (looked up): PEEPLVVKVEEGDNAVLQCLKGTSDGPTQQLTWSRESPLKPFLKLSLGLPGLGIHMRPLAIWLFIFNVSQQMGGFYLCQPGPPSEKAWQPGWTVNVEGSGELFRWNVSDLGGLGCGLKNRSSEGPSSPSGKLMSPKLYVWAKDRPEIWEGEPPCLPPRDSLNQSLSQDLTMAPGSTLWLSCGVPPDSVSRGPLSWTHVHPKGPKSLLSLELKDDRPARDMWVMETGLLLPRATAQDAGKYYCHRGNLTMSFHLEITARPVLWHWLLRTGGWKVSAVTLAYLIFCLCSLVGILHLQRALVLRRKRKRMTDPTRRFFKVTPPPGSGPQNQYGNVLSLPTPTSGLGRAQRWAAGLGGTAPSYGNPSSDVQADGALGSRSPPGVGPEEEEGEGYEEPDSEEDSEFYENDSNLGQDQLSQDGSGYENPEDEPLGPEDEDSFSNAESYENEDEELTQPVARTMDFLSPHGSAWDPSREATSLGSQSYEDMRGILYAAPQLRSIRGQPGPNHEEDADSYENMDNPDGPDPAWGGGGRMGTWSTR
The experiment is described as follows: FACS on Raji cells.

Experiment [3] addresses T3, cynomolgus monkey CD19 on peripheral blood B cells (cynomolgus monkey (Macaca fascicularis), UniProt A0A2K5W8L9 20-557).
T3 construct: whole, on cells; also called cynomolgus monkey B cells
T3 sequence: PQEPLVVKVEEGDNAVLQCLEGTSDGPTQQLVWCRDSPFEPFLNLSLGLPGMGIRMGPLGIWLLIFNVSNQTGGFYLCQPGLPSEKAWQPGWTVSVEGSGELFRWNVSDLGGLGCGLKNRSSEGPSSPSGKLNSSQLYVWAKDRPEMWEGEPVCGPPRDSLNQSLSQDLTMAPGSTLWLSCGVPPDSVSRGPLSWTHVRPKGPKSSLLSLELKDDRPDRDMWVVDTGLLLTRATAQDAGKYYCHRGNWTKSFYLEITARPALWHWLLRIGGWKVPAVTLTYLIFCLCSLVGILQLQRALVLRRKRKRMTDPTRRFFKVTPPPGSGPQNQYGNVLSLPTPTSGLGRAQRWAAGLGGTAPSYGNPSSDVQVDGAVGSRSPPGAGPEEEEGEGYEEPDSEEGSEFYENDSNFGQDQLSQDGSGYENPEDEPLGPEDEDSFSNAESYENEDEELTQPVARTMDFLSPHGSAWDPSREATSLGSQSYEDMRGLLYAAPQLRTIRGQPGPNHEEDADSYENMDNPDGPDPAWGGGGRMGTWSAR
As to the kind of experiment: FACS, cynomolgus PBMC, CD20+ B cells. In general terms: A flow cytometer gives signals particle by particle.

For experiment [4], the target named is T4, human CD19 on CHO-K1-human CD19 cells (human, UniProt P15391 20-556).
T4 construct: whole, on cells; also called CHO-K1-human CD19-2C8
T4 sequence (looked up): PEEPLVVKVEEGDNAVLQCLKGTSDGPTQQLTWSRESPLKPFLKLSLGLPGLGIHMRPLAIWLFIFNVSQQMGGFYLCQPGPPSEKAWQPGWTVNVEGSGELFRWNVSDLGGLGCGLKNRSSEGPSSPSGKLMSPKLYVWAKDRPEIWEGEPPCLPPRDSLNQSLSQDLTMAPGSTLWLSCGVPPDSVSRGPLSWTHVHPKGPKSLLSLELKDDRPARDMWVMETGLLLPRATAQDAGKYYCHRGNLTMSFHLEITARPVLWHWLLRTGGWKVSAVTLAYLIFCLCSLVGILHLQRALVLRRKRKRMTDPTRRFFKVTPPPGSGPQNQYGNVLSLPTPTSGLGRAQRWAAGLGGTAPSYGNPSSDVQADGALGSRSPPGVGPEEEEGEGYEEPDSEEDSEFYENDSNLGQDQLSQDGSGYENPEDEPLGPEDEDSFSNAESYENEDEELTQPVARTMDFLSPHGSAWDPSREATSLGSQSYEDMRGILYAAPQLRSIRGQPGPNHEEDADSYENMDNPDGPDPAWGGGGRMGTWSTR
As to the kind of experiment: FACS on CHO-K1-human CD19 cells.

B1: F4.152.7 (antibody, human IgG1, V domains shown)
VH: QVQLQQPGAELVKPGASVKLSCKASGYTFTSYWMHWVKQRPGQGLEWIGEIDPSDSYTNYNQKFKGKATLTADKSSSTAYMQLSGLTSEDSAVYHCARGGDYDGYYVMDYWGQGTSVTVSS
VL: EIVLTQSPTTMAASPGEKITITCSASSSISSNYLHWYQQKPGFSPKLLIYRTSNLASGVPARFSGSGSGTSYSLTIGTMEADDVATYYCQQGSYIPRIFTFGSGTKLEIK
notes: human-murine chimeric antibody, human IgG1
For the molecule B1, the “Maximum mean fluorescence intensity” value in experiment [1] is 58. For the same molecule, in experiment [2], it took 760 pM to reach a half-maximal effect (EC50) and the “Maximum mean fluorescence intensity” value turned out to be 26000. Also, in experiment [3], the “Proportion of chimeric antibody positive cells to B cells (%) at 1 nM” value (shortened to “Proportion … (%) at 1 nM”) came to 2%, the “Proportion of chimeric antibody positive cells to B cells (%) at 10 nM” value (“Proportion … (%) at 10 nM” below) stood at 2% and the “Proportion of chimeric antibody positive cells to B cells (%) at 100 nM” value (shortened to “Proportion … (%) at 100 nM”) turned out to be 3%. In addition, in experiment [4], the EC50 is 780 pM and the “Maximum mean fluorescence intensity” value is 58900.

B2: F4.49.11 (antibody, human IgG1, V domains shown)
VH: DVQLRASGPGLVKPSQSLSLTCSVTGYSITSGYYWNWIRQFPGNKLEWMGCISYDGTNNYNPSLKNRISFTRDTSKNQFFLNLNSVTTEDSATYYCARRVYYRYDGVVDYWGQGTSVTVSS
VL: ENVLTQSPAIMSASPGEKVTMTCSASSSVSYIHWYQQKSSTAPKLWIYDTSKLASGVPGRFSGSRSRNSYSLTISSMEAEDVATYYCFQGSGYPLTFGSGTKLEIK
notes: as for B1
Regarding B2, in experiment [1], it took 3080 pM to reach a half-maximal effect (EC50) and the “Maximum mean fluorescence intensity” value stood at 73500. Besides, in experiment [2], it took 6210 pM to reach a half-maximal effect (EC50) and the “Maximum mean fluorescence intensity” value amounted to 20300. In experiment [3], the “Proportion … (%) at 1 nM” value was 67%, the “Proportion … (%) at 10 nM” value came to 96% and the “Proportion … (%) at 100 nM” value is 98%. In addition, in experiment [4], the response was half-maximal at 3100 pM (EC50) and the “Maximum mean fluorescence intensity” value is 44200.

B3: F4.191.1 (antibody, human IgG1, V domains shown)
VH: QVQLQQPGAELVRPGASVKLSCKASGYTFTSYWINWVKQRPGQGLEWIGNIHPSDSYTNYNQKFKDKATLTVDKSSSTAYMQFSSPTSEDSAVYYCTREDYYYGSNYDAMDYWGQGTSVTVSS
VL: DIVMTQSHKFMSTSVGDRVNITCKASQDVGSSVAWYQQKPGQSPKLLIYWASTRHAGVPDRFTGSGSGADFTLTISNVQSEDLADYFCQQYSTYPLTFGAGTKLELK
notes: as for B1
B3: in experiment [1], the EC50 was found to be 1140 pM and the “Maximum mean fluorescence intensity” value came out at 59600. In experiment [2], it took 1890 pM to reach a half-maximal effect (EC50) and the “Maximum mean fluorescence intensity” value amounted to 32300. Further, in experiment [3], the “Proportion … (%) at 1 nM” value amounted to 3%, the “Proportion … (%) at 10 nM” value was determined as 15% and the “Proportion … (%) at 100 nM” value was 50%. In experiment [4], it took 340 pM to reach a half-maximal effect (EC50) and the “Maximum mean fluorescence intensity” value is 26500.

B4: F4.78.1 (antibody, human IgG1, V domains shown)
VH: QVQIQQSGAELARPGASVKLSCKASGYTFTNYWMQWIKQRPGQGLEWIGAIYPGDGDTRYTQKFKGKATLTADKSSSTAYMQLSSLASEDSAVYYCAREEVWSPYGMDYWGQGTSVTVSS
VL: QIVLTQSPAIMSASPGEKVTITCSASSSVSYMGWFQQKPGTSPKLWIYSTSNLASGVPARFSGSGSGTSYSLTISRMEAEDAATYYCQQRSIYPLTFGAGTKLELK
notes: as for B1
As to B4, in experiment [1], the EC50 was determined as 730 pM and the “Maximum mean fluorescence intensity” value was determined as 57000. Moreover, in experiment [2], the EC50 stood at 1520 pM and the “Maximum mean fluorescence intensity” value was determined as 36900. Further, in experiment [3], the “Proportion … (%) at 1 nM” value amounted to 21%, the “Proportion … (%) at 10 nM” value stood at 29% and the “Proportion … (%) at 100 nM” value was 74%. Moreover, in experiment [4], the response was half-maximal at 510 pM (EC50) and the “Maximum mean fluorescence intensity” value came to 44300.

B5: F4.107.12 (antibody, human IgG1, V domains shown)
VH: EVQLQQSGPELVKPGASVKMSCKASGYTFTSYVLHWVRQKPGQGLEWIGYFNPYNDGTEYNEKFKGKAILTSDKSSSTAYMELNSLTSEDSAVYYCVGGTYYYGSSYPFAYWGQGTLVTVST
VL: DVVMTQISLSLPVSLGDQASISCRSSQSLIHSNGNTYLQWYLQKPGQSPKLLIYKVSNRLSGVPDRFSGSGSGTDFTLKISRVEAEDLGVYFCSQSTHVPYTFGGGTKLEIK
notes: as for B1
For B5, in experiment [1], a half-maximal response (EC50) required 1240 pM and the “Maximum mean fluorescence intensity” value came to 69500. Also, in experiment [2], the EC50 worked out at 600 pM and the “Maximum mean fluorescence intensity” value came to 26700. Moreover, in experiment [3], the “Proportion … (%) at 1 nM” value is 20%, the “Proportion … (%) at 10 nM” value was found to be 35% and the “Proportion … (%) at 100 nM” value worked out at 67%. Also, in experiment [4], the EC50 was found to be 770 pM and the “Maximum mean fluorescence intensity” value worked out at 59900.

B6: F4.82.11 (antibody, human IgG1, V domains shown)
VH: QVTLKESGPGILQASQTLSLTCSFSGFSLSTFGIGVGWVRQPSGKGLEWLAHIWWNDNKFFNTTLKNRLTLSKDPSNNQVFLKIASVDTADTATYYCARSRSALITTGLYAMDYWGQGTSVTVSS
VL: DIQMTQTPSSLSASLGDRVTISCRSSQDISNYVNWYQQKPDGTVKVLINYTSRLHSGVPSRFSGSGSGTDYSLTISNLEQEDIASYFCQQGFTLPYTFGGGTKLEIK
notes: as for B1
Regarding B6, in experiment [1], the concentration for a half-maximal effect (EC50) stood at 1180 pM and the “Maximum mean fluorescence intensity” value was 66600. Besides, in experiment [2], a half-maximal effect (EC50) was put at 850 pM and the “Maximum mean fluorescence intensity” value was 16600. In experiment [3], the “Proportion … (%) at 1 nM” value amounted to 97%, the “Proportion … (%) at 10 nM” value came out at 98% and the “Proportion … (%) at 100 nM” value was determined as 99%. In experiment [4], the EC50 is 320 pM and the “Maximum mean fluorescence intensity” value is 26000.

B7: F4.96.6 (antibody, human IgG1, V domains shown)
VH: EIQLQQSGPELVKPGASVKVSCKASGYAFSAYNIYWVKQSHGKSLEWIGYIDPYNSGTTYNQKFRGKATLTVDKSSNTAYMHLSSLTSEDSAVYYCTRDGDAMDYWGQGTSVTVSS
VL: EILLTQSPAIIAASPGEKVTITCSASSGVIYMNWYQQKPGSSPKIWIYDVSTLASGVPARFSGSGSGTSFSFTINSMEAEDVATYYCQQRSSYPYTFGGGTKLEIK
notes: as for B1
Consider B7, for which the “Maximum mean fluorescence intensity” value in experiment [1] worked out at 73. For the same molecule, in experiment [2], the EC50 is 740 pM and the “Maximum mean fluorescence intensity” value came out at 25700. Moreover, in experiment [3], the “Proportion … (%) at 1 nM” value came to 1%, the “Proportion … (%) at 10 nM” value was 2% and the “Proportion … (%) at 100 nM” value was found to be 1%. In experiment [4], the EC50 came out at 1160 pM and the “Maximum mean fluorescence intensity” value was 52000.

One may read the EC50 as the concentration that produces a half-maximal response.
